According to paper PMC2755649 (Nature cell biology, 2009):
Residue numbers refer to the chain shown, from its start.

Assays:
[1] = biological target: T1, Recombinant wild-type InlC with a C-terminal 6xHis tag (Listeria monocytogenes, UniProt P71451 35-297); assay: SPR
T1 sequence (looked up): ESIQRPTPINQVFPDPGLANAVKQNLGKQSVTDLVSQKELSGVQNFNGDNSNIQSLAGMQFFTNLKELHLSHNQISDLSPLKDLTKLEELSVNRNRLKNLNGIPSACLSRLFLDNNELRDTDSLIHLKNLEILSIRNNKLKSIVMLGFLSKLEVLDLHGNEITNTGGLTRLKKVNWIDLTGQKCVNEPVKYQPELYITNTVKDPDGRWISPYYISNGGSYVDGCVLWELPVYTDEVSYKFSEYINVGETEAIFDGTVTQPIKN

[2] = biological target: T2, Recombinant InlC.K173A with a C-terminal 6xHis tag (Listeria monocytogenes, UniProt P71451 35-297, K173A); assay: SPR
T2 sequence (looked up): T1 sequence (looked up) with K139A

B1: SH36 protein of Tuba linked to the biosensor chip (domain or fragment, human, UniProt Q6XZF7 1513-1577, looked up)
chain: EGNQVYFAVYTFKARNPNELSVSANQKLKILEFKDVTGNTEWWLAEVNGKKGYVPSNYIRKTEYT
With B1 the Kd [1] was 9 ± 3.5 µM and the Kd [2] was 58 ± 12.3 µM.
